Experimental data taken from patent US20240182536A1 (MURAL ONCOLOGY, published 2024).
Like-named read-outs stand apart in the source and are kept apart here.

Experiments:
[1] = molecular target: T1, human IL-18 binding protein (IL-18BP) (human, UniProt O95998 31-194); test: Octet BLI
T1 construct: also called hu IL-18BP; hIL18BP
T1 sequence (looked up): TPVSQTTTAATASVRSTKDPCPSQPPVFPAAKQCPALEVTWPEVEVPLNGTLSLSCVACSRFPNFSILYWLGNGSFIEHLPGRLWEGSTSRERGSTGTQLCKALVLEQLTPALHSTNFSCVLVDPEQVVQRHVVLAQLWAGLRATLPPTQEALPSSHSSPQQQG
Description: (§1) Octet 96red instrument was used to determine affinities of IL18 proteins to BP or receptors. 5-10 ug/ml analyte proteins were used for loading on Sartorius tips (AHC or SA). […] 120-180 s loading, 200 s association and 800 s dissociation were used for kinetics. 3-7 data points were used to calculate affinities.

[2] = molecular target: T2, human IL-18R alpha/beta pair (IL-18Rab) (human, UniProt Q13478 19-329; O95256 20-356); test: Octet BLI
T2 construct: also called hu IL-18Rab
T2 sequence (looked up) 1: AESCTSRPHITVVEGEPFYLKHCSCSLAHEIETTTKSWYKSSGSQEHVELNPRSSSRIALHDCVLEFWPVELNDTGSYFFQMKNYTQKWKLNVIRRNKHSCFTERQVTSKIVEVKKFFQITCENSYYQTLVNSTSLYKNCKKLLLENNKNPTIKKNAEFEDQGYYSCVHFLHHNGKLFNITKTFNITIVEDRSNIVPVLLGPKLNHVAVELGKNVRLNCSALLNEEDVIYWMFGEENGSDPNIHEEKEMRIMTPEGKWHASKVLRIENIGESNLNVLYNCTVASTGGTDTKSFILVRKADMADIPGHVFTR
T2 sequence (looked up) 2: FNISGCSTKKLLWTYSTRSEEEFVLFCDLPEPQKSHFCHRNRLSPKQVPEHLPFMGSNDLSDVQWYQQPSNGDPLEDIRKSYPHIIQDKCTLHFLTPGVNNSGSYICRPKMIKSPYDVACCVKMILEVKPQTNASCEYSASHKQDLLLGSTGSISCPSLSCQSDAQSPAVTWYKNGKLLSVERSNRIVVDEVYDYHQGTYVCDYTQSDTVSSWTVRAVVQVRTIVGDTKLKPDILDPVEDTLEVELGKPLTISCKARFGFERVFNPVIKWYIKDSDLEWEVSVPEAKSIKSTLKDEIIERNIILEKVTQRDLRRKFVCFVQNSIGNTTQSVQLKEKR
Description: as §1

[3] = molecular target: T3, human IL-18 receptor alpha (IL-18Rα) (human, UniProt Q13478 19-329, limits assumed); test: Octet BLI
T3 construct: also called hu IL-18Ra; IL-18R alpha
T3 sequence (looked up): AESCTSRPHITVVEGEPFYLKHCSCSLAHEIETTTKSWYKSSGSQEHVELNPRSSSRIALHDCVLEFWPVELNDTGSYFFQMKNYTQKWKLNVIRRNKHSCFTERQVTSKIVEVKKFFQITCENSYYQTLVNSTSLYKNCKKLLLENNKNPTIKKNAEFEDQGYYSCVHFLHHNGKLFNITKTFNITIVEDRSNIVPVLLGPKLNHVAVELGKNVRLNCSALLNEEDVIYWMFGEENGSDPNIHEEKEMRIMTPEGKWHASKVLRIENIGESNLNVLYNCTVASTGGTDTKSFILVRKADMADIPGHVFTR
Description: as §1

[4] = molecular target: T1, human IL-18 binding protein (IL-18BP); test: Octet BLI; remark: listed apart in the source
[5] = molecular target: T2, human IL-18R alpha/beta pair (IL-18Rab); test: Octet BLI; remark: listed apart in the source
[6] = molecular target: T3, human IL-18 receptor alpha (IL-18Rα); test: Octet BLI; remark: listed apart in the source
[7] = molecular target: T1, human IL-18 binding protein (IL-18BP); test: cell-based or functional assay
[8] = molecular target: T4, IL-18 receptors on HEK-Blue IL-18 reporter cells (InvivoGen) (UniProt Q13478 19-541; O95256 20-599); test: cell-based or functional assay
T4 sequence (looked up) 1: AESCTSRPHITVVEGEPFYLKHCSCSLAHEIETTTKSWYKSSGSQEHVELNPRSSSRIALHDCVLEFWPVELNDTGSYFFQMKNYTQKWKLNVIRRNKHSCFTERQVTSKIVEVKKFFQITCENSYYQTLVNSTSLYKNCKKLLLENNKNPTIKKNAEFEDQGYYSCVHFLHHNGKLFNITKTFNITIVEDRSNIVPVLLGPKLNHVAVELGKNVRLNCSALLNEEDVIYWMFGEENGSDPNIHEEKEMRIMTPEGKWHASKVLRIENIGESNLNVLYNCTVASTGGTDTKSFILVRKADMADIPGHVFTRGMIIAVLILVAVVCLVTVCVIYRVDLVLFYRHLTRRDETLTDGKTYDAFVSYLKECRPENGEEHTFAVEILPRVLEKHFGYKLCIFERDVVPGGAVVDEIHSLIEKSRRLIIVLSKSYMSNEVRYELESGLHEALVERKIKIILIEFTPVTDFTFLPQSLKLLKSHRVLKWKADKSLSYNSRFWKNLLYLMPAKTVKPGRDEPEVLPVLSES
T4 sequence (looked up) 2: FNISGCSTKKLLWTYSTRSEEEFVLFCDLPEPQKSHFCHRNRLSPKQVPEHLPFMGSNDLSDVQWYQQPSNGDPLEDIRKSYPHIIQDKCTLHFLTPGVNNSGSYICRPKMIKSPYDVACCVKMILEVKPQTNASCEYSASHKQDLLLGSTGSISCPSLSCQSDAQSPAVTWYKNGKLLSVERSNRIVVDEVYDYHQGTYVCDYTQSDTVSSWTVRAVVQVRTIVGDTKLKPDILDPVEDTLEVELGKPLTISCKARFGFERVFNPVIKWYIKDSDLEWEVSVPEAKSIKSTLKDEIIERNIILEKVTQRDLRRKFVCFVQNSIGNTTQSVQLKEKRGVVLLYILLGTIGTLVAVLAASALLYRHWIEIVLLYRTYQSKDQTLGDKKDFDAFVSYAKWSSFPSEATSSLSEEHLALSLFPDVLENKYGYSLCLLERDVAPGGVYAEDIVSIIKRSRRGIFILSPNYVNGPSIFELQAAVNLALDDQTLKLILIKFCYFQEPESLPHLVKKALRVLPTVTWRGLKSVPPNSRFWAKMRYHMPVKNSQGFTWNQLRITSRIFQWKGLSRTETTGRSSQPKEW

[9] = molecular target: T1, human IL-18 binding protein (IL-18BP); test: cell-based or functional assay; remark: listed apart in the source
[10] = molecular target: T4, IL-18 receptors on HEK-Blue IL-18 …; test: cell-based or functional assay; remark: listed apart in the source
[11] = molecular target: T1, human IL-18 binding protein (IL-18BP); test: cell-based or functional assay; remark: listed apart in the source
[12] = molecular target: T5, IL-18 receptor (IL-18Rα and IL-18Rβ) (UniProt Q13478 19-541; O95256 20-599, limits assumed); test: cell-based or functional assay
T5 sequence (looked up) 1: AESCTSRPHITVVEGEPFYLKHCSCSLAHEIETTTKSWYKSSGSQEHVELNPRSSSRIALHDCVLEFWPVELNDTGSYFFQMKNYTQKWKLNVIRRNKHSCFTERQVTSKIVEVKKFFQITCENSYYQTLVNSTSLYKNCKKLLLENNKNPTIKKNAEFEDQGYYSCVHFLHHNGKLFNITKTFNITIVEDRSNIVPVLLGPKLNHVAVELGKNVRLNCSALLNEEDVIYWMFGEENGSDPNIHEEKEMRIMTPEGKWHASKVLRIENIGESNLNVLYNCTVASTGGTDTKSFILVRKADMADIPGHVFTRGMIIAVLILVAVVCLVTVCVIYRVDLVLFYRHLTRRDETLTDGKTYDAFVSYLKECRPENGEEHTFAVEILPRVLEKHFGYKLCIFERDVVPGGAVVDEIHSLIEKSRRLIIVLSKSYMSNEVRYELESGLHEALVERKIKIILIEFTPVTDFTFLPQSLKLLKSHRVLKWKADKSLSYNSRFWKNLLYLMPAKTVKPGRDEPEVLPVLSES
T5 sequence (looked up) 2: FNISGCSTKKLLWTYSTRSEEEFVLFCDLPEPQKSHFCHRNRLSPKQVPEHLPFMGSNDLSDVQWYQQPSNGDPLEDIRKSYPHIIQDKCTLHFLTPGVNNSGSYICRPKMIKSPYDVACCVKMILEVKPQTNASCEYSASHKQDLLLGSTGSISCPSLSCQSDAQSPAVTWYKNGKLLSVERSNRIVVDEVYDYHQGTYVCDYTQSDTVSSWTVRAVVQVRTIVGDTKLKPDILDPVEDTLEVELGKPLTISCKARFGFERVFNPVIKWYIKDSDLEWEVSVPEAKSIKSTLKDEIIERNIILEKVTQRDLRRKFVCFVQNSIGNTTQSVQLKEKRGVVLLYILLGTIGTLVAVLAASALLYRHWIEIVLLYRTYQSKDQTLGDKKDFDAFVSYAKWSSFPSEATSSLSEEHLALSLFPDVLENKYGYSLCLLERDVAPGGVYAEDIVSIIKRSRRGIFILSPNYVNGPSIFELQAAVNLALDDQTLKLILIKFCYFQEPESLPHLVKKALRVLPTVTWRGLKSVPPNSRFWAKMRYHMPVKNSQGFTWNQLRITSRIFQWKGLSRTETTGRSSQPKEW

[13] = molecular target: T1, human IL-18 binding protein (IL-18BP); test: cell-based or functional assay; remark: listed apart in the source
[14] = molecular target: T4, IL-18 receptors on HEK-Blue IL-18 …; test: cell-based or functional assay; remark: listed apart in the source
[15] = molecular target: T1, human IL-18 binding protein (IL-18BP); test: Octet BLI; remark: listed apart in the source
[16] = molecular target: T5, IL-18 receptor (IL-18Rα and IL-18Rβ); test: cell-based or functional assay; remark: listed apart in the source
[17] = molecular target: T1, human IL-18 binding protein (IL-18BP); test: cell-based or functional assay; remark: listed apart in the source
[18] = molecular target: T4, IL-18 receptors on HEK-Blue IL-18 …; test: cell-based or functional assay; remark: listed apart in the source

Binder | Kd [1] [nM] | Kd [2] [nM] | Kd [3] [nM] | Kd [4] [nM] | Kd [5] [nM] | Kd [6] [nM] | HEK-Blue Activity Assay Ec50 (pM), +300 nM hu IL-18BP [7] [pM] | HEK-Blue Activity Assay Ec50 (pM), -hu IL-18BP [8] [pM] | Fold Change (BP/NO BP), 50 nM BP [9] [fold] | Fold Change (BP/NO BP), 300 nM BP [9] [fold] | HEK-Blue EC50 pM, +50 nM BP [9] [pM] | HEK-blue EC50 (pM) + 300 nM BP [9] [pM] | HEK-Blue EC50 pM, NO BP (50 nM BP run) [10] [pM] | HEK-Blue EC50 pM, NO BP (300 nM BP run) [10] [pM] | EC50 pM, IFN gamma expression in PBMCs, + 300 nM BP [11] [pM] | EC50 pM, IFN gamma expression in PBMCs, no BP [12] [pM] | HEK-Blue Activity Assay Ec50 (pM), +50 nM hu IL-18BP [13] [pM] | HEK-Blue Activity Assay Ec50 (pM), -hu IL-18BP [14] [pM] | also measured
IL-18 variant G3V, M60K (ligand) YFVKLESKLSVIRNLNDQVLFIDQGNRPLFEDMTDSDMRDNAPRTIFIISMYKDSQPRGKAVTISVKSEKISTLSSENKIISFKEMNPPDNIKDTKSDIIFFQRSVPGHDNKMQFESSSYEGYFLASEKERDLFKLILKKEDELGDRSIMFTVQNED | 91 | 0.07 | 41 | 91 | 0.07 | 41 | 0.59 | 0.18 | 1.25 | 3.25 | 0.16 | 0.59 | 0.12 | 0.18 | 14.4 | 14.9 | 0.16 | 0.12 | –
IL-18 variant G3R, K53S (ligand) YFRKLESKLSVIRNLNDQVLFIDQGNRPLFEDMTDSDMRDNAPRTIFIISMYSDSQPRGMAVTISVKSEKISTLSSENKIISFKEMNPPDNIKDTKSDIIFFQRSVPGHDNKMQFESSSYEGYFLASEKERDLFKLILKKEDELGDRSIMFTVQNED | – | – | – | 4.03 | 0.09 | 197 | – | – | – | – | – | – | – | – | – | – | 1.84 | 0.31 | Kd [15]: 4 nM; koff [15]: 0.00143 s⁻¹; kon [15]: 356000 M⁻¹ s⁻¹; EC50 pM, IFN gamma expression in PBMCs [16]: 73.8 pM; HEK-Blue Ec50 (pM), +IL-18BP (50 nM) [17]: 1.84 pM; HEK-Blue Ec50 (pM), -IL-18BP [18]: 0.31 pM
IL-18 variant G3T, M60K, D157E (ligand) YFTKLESKLSVIRNLNDQVLFIDQGNRPLFEDMTDSDMRDNAPRTIFIISMYKDSQPRGKAVTISVKSEKISTLSSENKIISFKEMNPPDNIKDTKSDIIFFQRSVPGHDNKMQFESSSYEGYFLASEKERDLFKLILKKEDELGDRSIMFTVQNEE | 686 | 0.1 | 693 | 686 | 0.1 | 693 | 2.77 | 0.75 | 1.05 | 3.69 | 0.65 | 2.77 | 0.62 | 0.75 | 323 | 127 | 0.65 | 0.62 | –
